{"source": "paper PMC7473641", "about": "“The C-terminal helix of BubR1 is essential for CENP-E-dependent chromosome alignment” (Journal of Cell Science, 2020)", "binders": {"B1": {"name": "BubR1_(705–1050), pseudokinase domain of BubR1 (domain or fragment, human, UniProt O60566 705-1050, looked up)", "chain": "EKLELTNETSENPTQSPWCSQYRRQLLKSLPELSASAELCIEDRPMPKLEIEKEIELGNEDYCIKREYLICEDYKLFWVAPRNSAELTVIKVSSQPVPWDFYINLKLKERLNEDFDHFCSCYQYQDGCIVWHQYINCFTLQDLLQHSEYITHEITVLIIYNLLTIVEMLHKAEIVHGDLSPRCLILRNRIHDPYDCNKNNQALKIVDFSYSVDLRVQLDVFTLSGFRTVQILEGQKILANCSSPYQVDLFGIADLAHLLLFKEHLQVFWDGSFWKLSQNISELKDGELWNKFFVRILNANDEATVSVLGELAAEMNGVFDTTFQSHLNKALWKVGKLTSPGALLFQ", "notes": "source: E. coli BL21-CodonPlus (DE3)-RIL (overnight at 18°C), purified (HisTrap, 3C protease, SEC); not shown: His6, N-terminal, cleaved"}, "B2": {"name": "CENP-E_(2091–2358)–GST (domain or fragment, human, UniProt Q02224-1 2091-2358, looked up)", "chain": "ESLREKCSRIKELLKRYSEMDDHYECLNRLSLDLEKEIEFQKELSMRVKANLSLPYLQTKHIEKLFTANQRCSMEFHRIMKKLKYVLSYVTKIKEEQHESINKFEMDFIDEVEKQKELLIKIQHLQQDCDVPSRELRDLKLNQNMDLHIEEILKDFSESEFPSIKTEFQQVLSNRKEMTQFLEEWLNTRFDIEKLKNGIQKENDRICQVNNFFNNRIIAIMNESTEFEERSATISKEWEQDLKSLKEKNEKLFKNYQTLKTSLASGAQ", "notes": "no own measurement; not shown: GST, C-terminal, kept"}}, "key": {"[1]": {"biological_target": "T1, BubR1_(432–1050), C terminus of BubR1 containing the pseudokinase domain (human, UniProt O60566 432-1050)", "T1 construct": "source: purified recombinant", "test": "SEC; co-elution on Superdex Increase 200 10/300 GL in binding buffer (20 mM HEPES pH 7.5, 150 mM NaCl, 1 mM EDTA, 1 mM DTT); proteins mixed in equimolar ratio at ~7 µM; fractions on Coomassie gels", "conditions": "both partners purified"}, "[2]": {"biological_target": "the molecule itself", "test": "SEC-MALS; 100 µl at 1 mg/ml on Superdex-200 10/300 GL Increase, 22°C, gel filtration buffer (20 mM HEPES pH 7.5, 300 mM NaCl, or 500 mM for CENP-E 2055-2608, 1 mM EDTA, 1 mM DTT)"}, "[3]": {"biological_target": "B2", "test": "ITC; 276 µM BubR1 705-1050 titrated into 25 µM CENP-E 2091-2358-GST at 37°C; 20 mM HEPES pH 7.5, 150 mM NaCl, 1 mM EDTA, 0.005% Tween-20, 0.5 mM TCEP; one set of sites", "conditions": "both partners purified"}, "[4]": {"biological_target": "B1", "test": "SEC; co-elution on Superdex Increase 200 10/300 GL in binding buffer (20 mM HEPES pH 7.5, 150 mM NaCl, 1 mM EDTA, 1 mM DTT); proteins mixed in equimolar ratio at ~7 µM; fractions on Coomassie gels", "conditions": "both partners purified"}, "[5]": {"biological_target": "B1", "test": "ITC; 276 µM BubR1 705-1050 titrated into 25 µM CENP-E 2091-2358-GST at 37°C; 20 mM HEPES pH 7.5, 150 mM NaCl, 1 mM EDTA, 0.005% Tween-20, 0.5 mM TCEP; one set of sites", "conditions": "both partners purified"}}, "data": [{"binder": "CENP-E_(2055–2608), kinetochore- and centrosome-targeting domain of CENP-E (domain or fragment, human, UniProt Q02224-1 2055-2608, looked up, Dimer by SEC-MALS; Aggregated in 150 mM NaCl and was kept in 500 mM NaCl; Cloned in pET-3aTr; also called longer dimeric kinetochore-targeting domain; source: E. coli BL21-CodonPlus (DE3)-RIL, purified (HisTrap, Superdex 200 in 500 mM NaCl)) RDQFIATLREMIARDRQNHQVKPEKRLLSDGQQHLTESLREKCSRIKELLKRYSEMDDHYECLNRLSLDLEKEIEFQKELSMRVKANLSLPYLQTKHIEKLFTANQRCSMEFHRIMKKLKYVLSYVTKIKEEQHESINKFEMDFIDEVEKQKELLIKIQHLQQDCDVPSRELRDLKLNQNMDLHIEEILKDFSESEFPSIKTEFQQVLSNRKEMTQFLEEWLNTRFDIEKLKNGIQKENDRICQVNNFFNNRIIAIMNESTEFEERSATISKEWEQDLKSLKEKNEKLFKNYQTLKTSLASGAQVNPTTQDNKNPHVTSRATQLTTEKIRELENSLHEAKESAMHKESKIIKMQKELEVTNDIIAKLQAKVHESNKCLEKTKETIQVLQDKVALGAKPYKEEIEDLKMKLVKIDLEKMKNAKEFEKEISATKATVEYQKEVIRLLRENLRRSQQAQDTSVISEHTDPQPSNKPLTCGGGSGIVQNTKALILKSEHIRLEKEISKLKQQNEQLIKQKNELLSNNQHLSNEVKTWKERTLKREAHKQVTCENSPKS", "values": [{"measurement": "binding result", "setting": "[1]", "value": "binds"}, {"measurement": "stoichiometry N", "setting": "[2]", "value": 2}]}, {"binder": "B1", "values": [{"measurement": "dH", "setting": "[3]", "value": -5.1, "unit": "kcal/mol"}, {"measurement": "stoichiometry N", "setting": "[3]", "value": 0.908}]}, {"binder": "CENP-E_(2055–2358), minimal kinetochore-targeting domain of CENP-E (domain or fragment, human, UniProt Q02224-1 2055-2358, looked up, Monomer by SEC-MALS; source: E. coli BL21-CodonPlus (DE3)-RIL, purified (HisTrap, Superdex 200)) RDQFIATLREMIARDRQNHQVKPEKRLLSDGQQHLTESLREKCSRIKELLKRYSEMDDHYECLNRLSLDLEKEIEFQKELSMRVKANLSLPYLQTKHIEKLFTANQRCSMEFHRIMKKLKYVLSYVTKIKEEQHESINKFEMDFIDEVEKQKELLIKIQHLQQDCDVPSRELRDLKLNQNMDLHIEEILKDFSESEFPSIKTEFQQVLSNRKEMTQFLEEWLNTRFDIEKLKNGIQKENDRICQVNNFFNNRIIAIMNESTEFEERSATISKEWEQDLKSLKEKNEKLFKNYQTLKTSLASGAQ", "values": [{"measurement": "binding result", "setting": "[4]", "value": "binds"}]}, {"binder": "CENP-E_(2069–2358)–GST (domain or fragment, human, UniProt Q02224-1 2069-2358, looked up, no own measurement of the oligomeric state; source: E. coli BL21-CodonPlus (DE3)-RIL, purified; not shown: GST, C-terminal, kept) DRQNHQVKPEKRLLSDGQQHLTESLREKCSRIKELLKRYSEMDDHYECLNRLSLDLEKEIEFQKELSMRVKANLSLPYLQTKHIEKLFTANQRCSMEFHRIMKKLKYVLSYVTKIKEEQHESINKFEMDFIDEVEKQKELLIKIQHLQQDCDVPSRELRDLKLNQNMDLHIEEILKDFSESEFPSIKTEFQQVLSNRKEMTQFLEEWLNTRFDIEKLKNGIQKENDRICQVNNFFNNRIIAIMNESTEFEERSATISKEWEQDLKSLKEKNEKLFKNYQTLKTSLASGAQ", "values": [{"measurement": "binding result", "setting": "[4]", "value": "binds"}]}, {"binder": "B2", "values": [{"measurement": "Kd", "setting": "[5]", "value": 318, "unit": "nM"}]}]}
